From patent US20190194309A1 (AGENCY FOR SCIENCE TECHNOLOGY AND RESEARCH, published 2019)

Target: T1, Macrophage stimulating protein receptor (RON - Recepteur d' Origine Nantais), human (human, UniProt Q04912 25-1400)
T1 construct: whole, on cells; Endogenous RON of human cancer cell lines (HCT116, HT29, T47D and others) or RON transfected into H1299 cells; In Western blots and immunoprecipitations it comes from cell lysates; also called human RON receptor tyrosine kinase; MST1R
Test: immunofluorescence on PFA fixed HCT116 cells
Procedure: Cells were stained with DAPI for nuclear visualization and anti-mouse conjugate to 488 was used as a secondary mouse antibody.
The 4% paraformaldehyde fixed HCT116 and TKO cells were subjected to permeabilization with 0.4% Triton X-100 for 20 minutes. After rinsing with PBS, cells were blocked with 5% BSA in PBSTritonX (PBSTX) for 20 min, followed by overnight incubation in hybridoma supernatant at 4° C. IgGs were detected using 1:1000 […] Alexaflor 488 Donkey anti-mouse IgG conjugated (Life technologies) in PBSTX with 1% BSA. Subsequently, cells were counterstained with DAPI, and viewed with Incell Analyzer (GE Healthcare).

B1: 7G8 (antibody, V domains shown)
VH: EVQLEQSGGGLVQPGGSLKLSCAASGFTFNTYTMSWVRQTPEKRLEWVAYISNGGGSTYYPDTVKGRFTISRDNAKNTLYLQMSSLKSEDTAMYYCARGYRYAAMDYWGQGTSVTVSS
VL: DIVMTQTTATLSVTPGDGVSLSCRASQSINNNLHWYQQKSHESPRLLIKFASQSISGIPSRFSGSGSGTDFTLSINSVETEDFGMYFCQQSNSWPLTFGAGTKLELK
notes: Mouse monoclonal antibody from a hybridoma (Balb/c mice immunised with truncated human RON-GST); kappa light chain; Tested as hybridoma supernatant or purified mAb; also called mAb 7G8; anti-RON mouse mAb 7G8
B1: binds.
